For series [1], the target named is T1, dCas9-VirD2 fusion (Streptococcus pyogenes / Agrobacterium …, UniProt Q99ZW2 SEQ:46-1413+1453-1899). Nature of the series: EMSA; denaturing gel mobility shift; 10 mM MgCl2.
The target of series [2] is T2, VirD2-dCas9 fusion (/ Streptococcus pyogenes, UniProt Q99ZW2 SEQ:46-492+510-1877). Nature of the series: EMSA; denaturing gel mobility shift; 10 mM MgCl2. On the technique in general: In EMSA bound probe runs differently from free probe, usually more slowly.
Series [3] has as its target T3, dCas9-dVirD2 fusion (dead Cas9, dead VirD2) (Streptococcus pyogenes / Agrobacterium …, UniProt Q99ZW2 SEQ:46-1413+1453-1899). Nature of the series: EMSA; dead VirD2 does not bind RB probe.
Series [4] concerns the target T4, Cas9-VirD2 fusion (wild-type SpCas9 to wild-type VirD2) (Streptococcus pyogenes / Agrobacterium …, UniProt Q99ZW2;P06668 Q99ZW2:1-1368,P06668:1-424). Nature of the series: EMSA; different shift pattern; 250 nM each, 10 mM MgCl2. The following applies: tags: SpCas9-VirD2 fusion, expressed in E. coli BL21(DE3).
In series [5] the target is T5, VirD2-Cas9 fusion (wild-type VirD2 to wild-type SpCas9) (/ Streptococcus pyogenes, UniProt P06668;Q99ZW2 P06668:1-424,Q99ZW2:1-1368). Description: EMSA; denaturing gel mobility shift, Coomassie; 250 nM each, 10 mM MgCl2. The following applies: tags: VirD2-SpCas9 fusion, expressed in E. coli BL21(DE3).
The target of series [6] is T3, dCas9-dVirD2 fusion (dead Cas9, dead …). Description: negative control, dead VirD2; anti-biotin western. The following applies: label: 3' biotin.
Series [7] concerns the target T4, Cas9-VirD2 fusion (wild-type SpCas9 to …). Nature of the series: covalent binding, anti-biotin western; 10 mM MgCl2, 37 C. The following applies: tags: SpCas9-VirD2 fusion, expressed in E. coli BL21(DE3); label: 3' biotin.
Series [8] deals with T5, VirD2-Cas9 fusion (wild-type VirD2 to …). The description is as above. The following applies: tags: VirD2-SpCas9 fusion, expressed in E. coli BL21(DE3); label: 3' biotin.
For series [9], the target named is T1, dCas9-VirD2 fusion. The description is as above. The following applies: label: 3' biotin.
For series [10], the target named is T2, VirD2-dCas9 fusion. The description is as above. The following applies: label: 3' biotin.

B1: pstv-cnt-RB-ssDNA (ssDNA)
DNA: CAGATCAATTCTCTTAGGTTTACCCGCCAATATATCCTGTCAAACACTGATAGTTTTCACAGTAGGGTG
Turning to B1, the binding result is listed as “binds” with dCas9-VirD2 fusion [1]; “binds” in the series with VirD2-dCas9 fusion [2]; “no binding” in [3]; “binds” in [4]; “binds” in series [5].

As for GTTTACCCGCCAATATATCCTGTCATTTTTTTTTT (ssDNA) [virD2 reporter-B-L], the binding result in series [6] is given as “no binding”; in [7], “binds”; in series [8], “binds”; with dCas9-VirD2 fusion [9], “binds”; in the series with VirD2-dCas9 fusion [10], “binds”.

The values are drawn from patent US20240124917, “COMPOSITIONS AND METHODS FOR NUCLEIC ACID DETECTION BY LATERAL FLOW ASSAYS” (King Abdullah University of Science and Technology, published 2024).
